Assay results published in patent publication US20080181886A1 (Genentech, published 2008).

T1: Murine APRIL (mouse, UniProt Q9D777 105-241, limits assumed)
T1 sequence (looked up): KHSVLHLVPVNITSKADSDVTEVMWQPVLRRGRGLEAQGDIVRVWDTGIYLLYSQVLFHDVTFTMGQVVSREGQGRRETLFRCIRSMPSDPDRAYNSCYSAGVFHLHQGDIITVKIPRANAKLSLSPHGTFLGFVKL


Legend:
human BAFF [1] = target: T2, human BAFF (human, UniProt Q9Y275 82-285, limits assumed); experiment: shotgun scan, phage display
Source text: (§1) Phage from each of the libraries described above were subjected to rounds of binding selection against APRIL, BAFF, or anti-tag antibody (3C8:2F4 Genentech, Inc.) immobilized on 96-well Nunc Maxisorp immunoplates (Sidhu, 2001). BSA-coated wells were used to determine non-specific background binding. Phage eluted from each target were propagated in E. coli XL1-Blue in the presence of M13K07 helper phage; amplified phage were used for selection against the same target in the […] round. […] Enrichment was calculated from the ratio of the phage titer eluted from the target-coated wells to the phage titer eluted from the BSA-coated wells. Individual clones from each library and selection target were then grown in a 96-well format in 400 ul of 2YT medium supplemented with carbenicillin and KO7 helper phage. […] Sequences of acceptable quality were translated and aligned. For APRIL-binding, 71, 40, and 54 sequences were analyzed from libraries one, two and three, respectively. For BAFF-binding, 70, 50, and 53 sequences were analyzed for libraries one, two and three, respectively. For the display selection, a minimum of 47 sequences were analyzed for each library. […] F values describe the effect of mutation on target binding, while accounting for differences in display efficiencies, with values >1 representing deleterious mutations and those <1 representing favorable mutations.

Murine APRIL [2] = target: T1, Murine APRIL; experiment: shotgun scan, phage display
Source text: as §1

human BAFF [3] = target: T2, human BAFF; experiment: NNS library, phage display;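 further: ligand versus display occurrence-to-degeneracy ratio and higher means enriched by binding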
Description: (§2) This new phage library was subjected to sorting against either BAFF, APRIL or the display target antibody. After 3 rounds of sorting, approximately 48 clones were picked from each selection and the DNA sequences of the phage clones were determined. […] The normalized F′ value corrects for display bias and is calculated as the percent occurrence to percent degeneracy ratio for ligand selection divided by the percent occurrence to percent degeneracy ratio for display efficiency. Percent occurrence is calculated by dividing the number of times a particular amino acid appeared at a particular position by the total number of amino acids sequenced at that position followed by multiplying by 100. Percent degeneracy is calculated by dividing the degeneracy in code for a particular amino acid divided by the total degeneracy possible at that position followed by multiplying by 100 (e.g., if only A, G and I were selected, total degeneracy possible would be 5).

Murine APRIL [4] = target: T1, Murine APRIL; experiment: NNS library, phage display;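 further: ligand versus display occurrence-to-degeneracy ratio and higher means enriched by binding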
Description: as §2

T2 sequence (Q9Y275 82-285 limits assumed): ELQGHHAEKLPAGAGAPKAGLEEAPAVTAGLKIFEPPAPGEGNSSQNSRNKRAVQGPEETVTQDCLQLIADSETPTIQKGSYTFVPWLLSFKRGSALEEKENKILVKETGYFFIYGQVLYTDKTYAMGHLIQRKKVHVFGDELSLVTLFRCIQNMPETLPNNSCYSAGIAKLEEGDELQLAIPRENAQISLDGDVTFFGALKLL

Binder	F (BAFF) (human BAFF [1])	F (APRIL) (Murine APRIL [2])	F' BAFF (human BAFF [3])	F' APRIL (Murine APRIL [4])
SLSCRKEQGKFYAHLLRDCISCASICGQHPKQCAYFCENKLR (receptor, phage library variant, format as m9) [TACI_d2 D80A]	> 42	> 43	–	–
SLSCRTEQGKFYDHLLRDCISCASICGQHPKQCAYFCENKLR (receptor, phage library variant, format as m9) [TACI_d2 K73T]	8.9	5	–	–
SLSCRKEQGKFYDHLLVDCISCASICGQHPKQCAYFCENKLR (receptor, phage library variant, format as m9) [TACI_d2 R84V]	–	–	2	4
SLSCRKAQGKFYDHLLRDCISCASICGQHPKQCAYFCENKLR (receptor, phage library variant, format as m9) [TACI_d2 E74A]	0.6	0.7	–	–
SLSCRKEQGKFYDHLLADCISCASICGQHPKQCAYFCENKLR (receptor, phage library variant, format as m9) [TACI_d2 R84A]	–	1.1	3	2
SLSCRKEQGKFMDHLLRDCISCASICGQHPKQCAYFCENKLR (receptor, phage library variant, format as m9) [TACI_d2 Y79M]	–	–	0	0
SLSCRKEQGKFRDHLLRDCISCASICGQHPKQCAYFCENKLR (receptor, phage library variant, format as m9) [TACI_d2 Y79R]	–	–	0	0
SLSCRKEQGKFNDHLLRDCISCASICGQHPKQCAYFCENKLR (receptor, phage library variant, format as m9) [TACI_d2 Y79N]	–	–	0	0
SLSCRKEQGKFFDHLLRDCISCASICGQHPKQCAYFCENKLR (receptor, phage library variant, format as m9) [TACI_d2 Y79F]	–	–	5	4
SLSCRKEQGKFIDHLLRDCISCASICGQHPKQCAYFCENKLR (receptor, phage library variant, format as m9) [TACI_d2 Y79I]	–	–	6	4
SLSCRKEQGKFYDHLLSDCISCASICGQHPKQCAYFCENKLR (receptor, phage library variant, format as m9) [TACI_d2 R84S]	–	–	0	0
SLSCRKEQGKFYDHLLRACISCASICGQHPKQCAYFCENKLR (receptor, phage library variant, format as m9) [TACI_d2 D85A]	0.8	0.5	–	–
SLSCRKEQGKFYDHLLRDCVSCASICGQHPKQCAYFCENKLR (receptor, phage library variant, format as m9) [TACI_d2 I87V]	1.1	1.4	–	–
SLSCRKEQGKFYDHLLRDCISCASACGQHPKQCAYFCENKLR (receptor, phage library variant, format as m9) [TACI_d2 I92A]	–	11	0	0
SLSCRKEQGKFADHLLRDCISCASICGQHPKQCAYFCENKLR (receptor, phage library variant, format as m9) [TACI_d2 Y79A]	–	> 21	0	0
SLSCRKEQGKFYDHLLTDCISCASICGQHPKQCAYFCENKLR (receptor, phage library variant, format as m9) [TACI_d2 R84T]	–	–	3	0
SLSCRKEQGKFYDHLLRDCTSCASICGQHPKQCAYFCENKLR (receptor, phage library variant, format as m9) [TACI_d2 I87T]	> 22	> 19	–	–
SLSCRKEQGKFYDHLLRDCISCASICAQHPKQCAYFCENKLR (receptor, phage library variant, format as m9) [TACI_d2 G94A]	10	34	–	–
SLSCRKEQGKFEDHLLRDCISCASICGQHPKQCAYFCENKLR (receptor, phage library variant, format as m9) [TACI_d2 Y79E]	–	–	0	8

Binder	F (BAFF) (human BAFF [1])	F (APRIL) (Murine APRIL [2])	F' BAFF (human BAFF [3])	F' APRIL (Murine APRIL [4])
SLSCRKEQGKFYDHLLWDCISCASICGQHPKQCAYFCENKLR (receptor, phage library variant, format as m9) [TACI_d2 R84W]	–	–	0	9
SLSCRKEQGKFKDHLLRDCISCASICGQHPKQCAYFCENKLR (receptor, phage library variant, format as m9) [TACI_d2 Y79K]	–	–	0	0
SLSCRKEQGKFWDHLLRDCISCASICGQHPKQCAYFCENKLR (receptor, phage library variant, format as m9) [TACI_d2 Y79W]	–	–	4	3
SLSCRKEQGKFYDHLLQDCISCASICGQHPKQCAYFCENKLR (receptor, phage library variant, format as m9) [TACI_d2 R84Q]	–	–	0	0
SLSCRKEQGKSYDHLLRDCISCASICGQHPKQCAYFCENKLR (receptor, phage library variant, format as m9) [TACI_d2 F78S]	–	> 66	0	0
SLSCRKEQGKFGDHLLRDCISCASICGQHPKQCAYFCENKLR (receptor, phage library variant, format as m9) [TACI_d2 Y79G]	–	–	0	0
SLSCRKEQGKFQDHLLRDCISCASICGQHPKQCAYFCENKLR (receptor, phage library variant, format as m9) [TACI_d2 Y79Q]	–	–	0	0
SLSCRKEQGKFYDPLLRDCISCASICGQHPKQCAYFCENKLR (receptor, phage library variant, format as m9) [TACI_d2 H81P]	0.8	1.5	–	–
SLSCRAEQGKFYDHLLRDCISCASICGQHPKQCAYFCENKLR (receptor, phage library variant, format as m9) [TACI_d2 K73A]	2	1.6	–	–
SLSCRKEQGKFYDHLLRDCASCASICGQHPKQCAYFCENKLR (receptor, phage library variant, format as m9) [TACI_d2 I87A]	> 30	> 27	–	–
SLSCRKEQGKFVDHLLRDCISCASICGQHPKQCAYFCENKLR (receptor, phage library variant, format as m9) [TACI_d2 Y79V]	–	–	2	0
SLSCRKEQGKFYDHLLRDCISCASICGQHPKQCAYVCENKLR (receptor, phage library variant, format as m9) [TACI_d2 F103V]	0.7	0.6	–	–
SLSCRKEQGEFYDHLLRDCISCASICGQHPKQCAYFCENKLR (receptor, phage library variant, format as m9) [TACI_d2 K77E]	0.9	1.4	–	–
SLSCRKEQGKFPDHLLRDCISCASICGQHPKQCAYFCENKLR (receptor, phage library variant, format as m9) [TACI_d2 Y79P]	–	–	3	2
SLSCRKEQGKFLDHLLRDCISCASICGQHPKQCAYFCENKLR (receptor, phage library variant, format as m9) [TACI_d2 Y79L]	–	–	1	0
SLSCRKEQGKFHDHLLRDCISCASICGQHPKQCAYFCENKLR (receptor, phage library variant, format as m9) [TACI_d2 Y79H]	–	–	0	0
SLSCRKEQGKFYDHLLYDCISCASICGQHPKQCAYFCENKLR (receptor, phage library variant, format as m9) [TACI_d2 R84Y]	–	–	1	0
SLSCRKEQGKFTDHLLRDCISCASICGQHPKQCAYFCENKLR (receptor, phage library variant, format as m9) [TACI_d2 Y79T]	–	–	0	0
SLSCRKEQGKFCDHLLRDCISCASICGQHPKQCAYFCENKLR (receptor, phage library variant, format as m9) [TACI_d2 Y79C]	–	–	0	0
